Drawing on article PMC11188183, this text covers BrdU cell proliferation of AA TNBC cells treated with CW069 + blebbistatin and relative abundance of MYH9 in the nKIFC1 immunoprecipitate, fold over MDA-MB-231 for one substance.

The target in experiment [1] is kinesin family member C1 (KIFC1) (human) (UniProt Q9BW19).
For experiment [2] the target is unchanged. The experiment can be described thus: affinity purification with mass spectrometry; anti-KIFC1 antibody (Abcam ab172620) crosslinked to magnetic beads; nuclear lysate of HCC1806 (AA) cells; LC-MS/MS of the eluate.
For experiment [3] the target is unchanged. Description: affinity purification with mass spectrometry; anti-KIFC1 antibody (Abcam ab172620) crosslinked to magnetic beads; nuclear lysate of MDA-MB-468 (AA) cells; LC-MS/MS of the eluate.

Sequence of UniProt Q9BW19 (Q9BW19 whole entry): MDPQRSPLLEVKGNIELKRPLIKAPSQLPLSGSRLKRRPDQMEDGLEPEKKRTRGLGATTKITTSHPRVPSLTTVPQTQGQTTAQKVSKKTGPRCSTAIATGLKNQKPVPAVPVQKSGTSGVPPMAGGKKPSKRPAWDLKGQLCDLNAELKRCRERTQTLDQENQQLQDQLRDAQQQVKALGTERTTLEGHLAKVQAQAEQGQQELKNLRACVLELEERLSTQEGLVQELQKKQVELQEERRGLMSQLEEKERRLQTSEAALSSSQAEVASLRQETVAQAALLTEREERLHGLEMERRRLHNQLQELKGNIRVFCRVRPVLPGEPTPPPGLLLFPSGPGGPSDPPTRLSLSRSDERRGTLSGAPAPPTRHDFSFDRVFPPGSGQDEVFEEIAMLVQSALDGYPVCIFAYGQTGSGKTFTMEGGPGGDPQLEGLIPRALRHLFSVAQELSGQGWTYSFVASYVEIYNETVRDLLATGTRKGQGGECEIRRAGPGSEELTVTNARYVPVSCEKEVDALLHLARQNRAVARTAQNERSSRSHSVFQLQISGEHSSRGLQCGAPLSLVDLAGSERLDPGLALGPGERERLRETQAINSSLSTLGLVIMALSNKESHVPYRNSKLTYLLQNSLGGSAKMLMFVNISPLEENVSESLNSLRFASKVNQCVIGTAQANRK

Consider “myosin heavy chain 9 (MYH9) (from UniProt P35579 1-1960) (natural protein)”, for which the BrdU cell proliferation of AA TNBC cells treated with CW069 + blebbistatin in experiment [1] is 1.5 fold. Moreover, the relative abundance of MYH9 in the nKIFC1 immunoprecipitate, fold over MDA-MB-231 in experiment [2] was determined as 1.6 fold; in experiment [3] it was 1.8 fold.
